Results on 3 molecules are retold here after PMC13066097 (Nature Communications, 2026).

The target in assay [1] is T1, recombinant PcrV protein (rePcrV) coated on ELISA plates (Pseudomonas aeruginosa, strain not told …).
T1 chain: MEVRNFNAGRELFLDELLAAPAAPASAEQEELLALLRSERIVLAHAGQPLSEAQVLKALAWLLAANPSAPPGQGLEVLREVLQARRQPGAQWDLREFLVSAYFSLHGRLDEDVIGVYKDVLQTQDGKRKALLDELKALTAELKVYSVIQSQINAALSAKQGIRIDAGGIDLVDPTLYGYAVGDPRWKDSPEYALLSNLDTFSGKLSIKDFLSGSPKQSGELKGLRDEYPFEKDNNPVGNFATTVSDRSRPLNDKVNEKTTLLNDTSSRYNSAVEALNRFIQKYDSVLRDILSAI
As to the kind of experiment: ELISA.

For assay [2], the target named is 6xHis-tagged PcrV of P. aeruginosa clinical isolate KN33 expressed in E. coli (Pseudomonas aeruginosa KN33 (ST508), strain). As to the kind of experiment: immunoblot.
Assay [3] deals with 6xHis-tagged PcrV of P. aeruginosa clinical isolate KN34 expressed in E. coli (Pseudomonas aeruginosa KN34 (ST186), strain). As to the kind of experiment: immunoblot. On the technique in general: In western blotting, separated proteins are transferred to a membrane and probed.
The target in assay [4] is 6xHis-tagged PcrV of P. aeruginosa clinical isolate KN37 expressed in E. coli (Pseudomonas aeruginosa KN37 (ST244), strain). As to the kind of experiment: immunoblot.
For assay [5], the target named is T2, 6xHis-tagged PcrV of P. aeruginosa clinical isolate KP2401 expressed in E. coli (Pseudomonas aeruginosa KP2401 (ST5295), strain).
T2 chain: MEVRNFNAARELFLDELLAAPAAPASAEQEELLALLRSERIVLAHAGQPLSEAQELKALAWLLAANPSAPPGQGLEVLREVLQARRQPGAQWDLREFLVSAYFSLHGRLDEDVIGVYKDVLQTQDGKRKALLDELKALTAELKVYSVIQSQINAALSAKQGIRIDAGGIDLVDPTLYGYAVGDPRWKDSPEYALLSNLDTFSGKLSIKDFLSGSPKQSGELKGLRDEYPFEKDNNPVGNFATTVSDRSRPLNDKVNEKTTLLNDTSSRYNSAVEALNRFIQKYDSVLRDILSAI
As to the kind of experiment: immunoblot.

Assay [6] deals with T3, 6xHis-tagged PcrV of P. aeruginosa clinical isolate KN5 expressed in E. coli (Pseudomonas aeruginosa KN5 (ST357), strain).
T3 chain: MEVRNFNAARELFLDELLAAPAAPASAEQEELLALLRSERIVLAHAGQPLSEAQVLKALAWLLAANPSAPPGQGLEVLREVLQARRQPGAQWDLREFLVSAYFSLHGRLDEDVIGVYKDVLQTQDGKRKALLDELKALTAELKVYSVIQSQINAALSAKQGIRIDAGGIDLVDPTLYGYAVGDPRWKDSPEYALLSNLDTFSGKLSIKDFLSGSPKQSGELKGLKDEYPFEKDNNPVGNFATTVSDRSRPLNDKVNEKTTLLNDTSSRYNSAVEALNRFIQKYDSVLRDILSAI
As to the kind of experiment: immunoblot.

Assay [7] addresses T4, 6xHis-tagged PcrV of P. aeruginosa clinical isolate KN27 expressed in E. coli (Pseudomonas aeruginosa KN27 (ST235), strain).
T4 chain: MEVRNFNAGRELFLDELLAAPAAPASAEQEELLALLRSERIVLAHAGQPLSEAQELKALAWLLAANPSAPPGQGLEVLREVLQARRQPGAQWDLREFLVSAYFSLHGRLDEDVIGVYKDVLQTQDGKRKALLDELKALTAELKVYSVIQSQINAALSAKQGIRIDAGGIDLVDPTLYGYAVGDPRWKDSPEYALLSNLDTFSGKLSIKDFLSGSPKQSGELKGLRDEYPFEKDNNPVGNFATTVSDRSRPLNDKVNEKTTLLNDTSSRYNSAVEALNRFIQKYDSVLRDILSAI
As to the kind of experiment: immunoblot.

The target of assay [8] is T5, 6xHis-tagged PcrV of P. aeruginosa clinical isolate KN17 expressed in E. coli (Pseudomonas aeruginosa KN17 (ST357), strain).
T5 chain: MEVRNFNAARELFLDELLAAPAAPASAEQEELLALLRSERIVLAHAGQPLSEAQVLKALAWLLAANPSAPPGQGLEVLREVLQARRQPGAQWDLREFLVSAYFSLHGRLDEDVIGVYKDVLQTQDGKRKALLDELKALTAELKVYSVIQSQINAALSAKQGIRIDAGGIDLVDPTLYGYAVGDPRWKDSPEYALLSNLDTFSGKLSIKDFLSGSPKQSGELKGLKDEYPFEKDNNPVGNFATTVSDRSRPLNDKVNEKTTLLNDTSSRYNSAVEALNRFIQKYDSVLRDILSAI
Description: immunoblot.

Assay [9] has as its target T6, 6xHis-tagged PcrV of P. aeruginosa clinical isolate KN28 expressed in E. coli (Pseudomonas aeruginosa KN28 (ST357), strain).
T6 chain: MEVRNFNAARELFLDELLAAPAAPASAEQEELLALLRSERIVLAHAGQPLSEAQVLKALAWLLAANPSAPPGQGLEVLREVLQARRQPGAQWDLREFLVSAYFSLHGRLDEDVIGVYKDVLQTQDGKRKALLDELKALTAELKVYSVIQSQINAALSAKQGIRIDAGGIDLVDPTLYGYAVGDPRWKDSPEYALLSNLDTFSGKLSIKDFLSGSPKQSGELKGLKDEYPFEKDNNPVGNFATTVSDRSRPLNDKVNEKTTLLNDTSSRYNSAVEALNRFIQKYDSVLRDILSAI
Description: immunoblot.

Assay [10] has as its target 6xHis-tagged PcrV of P. aeruginosa clinical isolate KN15 expressed in E. coli (Pseudomonas aeruginosa KN15 (ST512), strain). As to the kind of experiment: immunoblot.
Assay [11] has as its target T7, 6xHis-tagged PcrV of P. aeruginosa clinical isolate KN41 expressed in E. coli (Pseudomonas aeruginosa KN41 (ST235), strain).
T7 chain: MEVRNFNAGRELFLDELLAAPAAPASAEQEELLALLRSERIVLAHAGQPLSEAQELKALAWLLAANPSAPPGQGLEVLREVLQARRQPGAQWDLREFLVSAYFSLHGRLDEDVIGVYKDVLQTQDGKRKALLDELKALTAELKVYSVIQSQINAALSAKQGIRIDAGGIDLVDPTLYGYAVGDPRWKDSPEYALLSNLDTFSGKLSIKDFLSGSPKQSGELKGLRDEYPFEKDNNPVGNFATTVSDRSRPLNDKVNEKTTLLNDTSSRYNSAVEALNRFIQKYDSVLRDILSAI
As to the kind of experiment: immunoblot.

Assay [12] has as its target PcrV of P. aeruginosa clinical isolate KN15, from bacterial culture (Pseudomonas aeruginosa KN15 (ST512), strain). Description: immunoblot.
Assay [13] concerns the target T8, PcrV of P. aeruginosa clinical isolate KN17, from bacterial culture (Pseudomonas aeruginosa clinical isolate …, strain).
T8 chain: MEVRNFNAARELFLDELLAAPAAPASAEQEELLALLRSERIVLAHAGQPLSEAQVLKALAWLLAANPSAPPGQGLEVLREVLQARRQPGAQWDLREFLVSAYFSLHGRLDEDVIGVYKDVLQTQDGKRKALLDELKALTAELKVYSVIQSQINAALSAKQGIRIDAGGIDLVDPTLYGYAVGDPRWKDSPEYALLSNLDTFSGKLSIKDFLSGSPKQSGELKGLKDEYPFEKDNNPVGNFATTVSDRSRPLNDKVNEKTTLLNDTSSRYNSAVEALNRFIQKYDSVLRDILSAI
As to the kind of experiment: immunoblot.

Assay [14] deals with T9, PcrV of P. aeruginosa clinical isolate KN27, from bacterial culture (Pseudomonas aeruginosa KN27 (ST235), strain).
T9 chain: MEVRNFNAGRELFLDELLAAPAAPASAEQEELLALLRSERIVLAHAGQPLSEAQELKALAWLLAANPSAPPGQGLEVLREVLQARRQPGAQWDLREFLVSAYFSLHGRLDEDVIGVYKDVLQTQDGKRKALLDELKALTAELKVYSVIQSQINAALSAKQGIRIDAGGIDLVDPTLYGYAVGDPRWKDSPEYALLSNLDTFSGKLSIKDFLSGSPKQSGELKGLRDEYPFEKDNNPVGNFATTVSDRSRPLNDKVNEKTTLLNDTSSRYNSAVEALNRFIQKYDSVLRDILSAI
Description: immunoblot.

In assay [15] the target is T10, PcrV of P. aeruginosa clinical isolate KN28, from bacterial culture (Pseudomonas aeruginosa KN28 (ST357); …, strain).
T10 chain: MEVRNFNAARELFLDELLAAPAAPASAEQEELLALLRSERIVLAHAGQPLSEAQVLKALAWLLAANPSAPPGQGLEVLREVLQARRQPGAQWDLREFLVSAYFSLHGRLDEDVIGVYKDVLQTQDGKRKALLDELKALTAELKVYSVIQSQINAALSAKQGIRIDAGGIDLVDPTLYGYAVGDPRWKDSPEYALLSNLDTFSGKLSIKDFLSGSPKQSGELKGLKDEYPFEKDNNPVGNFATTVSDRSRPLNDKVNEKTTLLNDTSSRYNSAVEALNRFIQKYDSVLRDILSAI
As to the kind of experiment: immunoblot.

The target in assay [16] is T11, PcrV of P. aeruginosa clinical isolate KN5, from bacterial culture (Pseudomonas aeruginosa KN5 (ST357), strain).
T11 chain: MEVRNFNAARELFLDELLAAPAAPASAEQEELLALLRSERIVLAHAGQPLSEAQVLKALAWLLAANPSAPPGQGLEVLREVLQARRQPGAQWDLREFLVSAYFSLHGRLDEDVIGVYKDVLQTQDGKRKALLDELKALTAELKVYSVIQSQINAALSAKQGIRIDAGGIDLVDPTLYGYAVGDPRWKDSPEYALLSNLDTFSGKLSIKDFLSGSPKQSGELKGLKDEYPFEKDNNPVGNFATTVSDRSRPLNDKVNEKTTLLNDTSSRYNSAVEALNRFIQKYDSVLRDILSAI
As to the kind of experiment: immunoblot.

In assay [17] the target is PcrV of P. aeruginosa strain PAO1, from bacterial culture (Pseudomonas aeruginosa PAO1). Description: immunoblot.
The target in assay [18] is PcrV of P. aeruginosa clinical isolate KN33, from bacterial culture (Pseudomonas aeruginosa KN33 (ST508), UniProt G3XD49, strain). As to the kind of experiment: immunoblot.
The target in assay [19] is PcrV of P. aeruginosa clinical isolate KN34, from bacterial culture (Pseudomonas aeruginosa KN34 (ST186), UniProt G3XD49, strain). Description: immunoblot.
The target of assay [20] is PcrV of P. aeruginosa clinical isolate KN37, from bacterial culture (Pseudomonas aeruginosa KN37 (ST244), UniProt G3XD49, strain). Description: immunoblot.
For assay [21], the target named is T12, PcrV of P. aeruginosa clinical isolate KP2401, from bacterial culture (Pseudomonas aeruginosa KP2401 (ST5295), strain).
T12 chain: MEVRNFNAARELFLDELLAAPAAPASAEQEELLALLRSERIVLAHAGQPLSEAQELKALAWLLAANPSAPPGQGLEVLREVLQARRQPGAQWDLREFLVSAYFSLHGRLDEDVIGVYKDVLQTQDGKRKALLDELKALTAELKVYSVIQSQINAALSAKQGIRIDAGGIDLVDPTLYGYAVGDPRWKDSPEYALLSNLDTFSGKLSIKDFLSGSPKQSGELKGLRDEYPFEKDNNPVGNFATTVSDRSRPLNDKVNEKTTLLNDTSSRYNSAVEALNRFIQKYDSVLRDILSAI
As to the kind of experiment: immunoblot.

Assay [22] concerns the target T13, PcrV of P. aeruginosa clinical isolate KN41, from bacterial culture (Pseudomonas aeruginosa KN41 (ST235), strain).
T13 chain: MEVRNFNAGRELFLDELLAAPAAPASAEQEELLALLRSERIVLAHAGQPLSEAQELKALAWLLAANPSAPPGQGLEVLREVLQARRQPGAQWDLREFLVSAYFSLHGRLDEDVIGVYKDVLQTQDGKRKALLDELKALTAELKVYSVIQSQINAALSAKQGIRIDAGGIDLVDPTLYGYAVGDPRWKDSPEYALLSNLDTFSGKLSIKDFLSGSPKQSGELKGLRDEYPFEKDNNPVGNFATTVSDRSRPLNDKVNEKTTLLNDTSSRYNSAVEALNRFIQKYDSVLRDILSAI
As to the kind of experiment: immunoblot.

B1: anti-PcrV scFv antibody scFv-m166 (recombinant protein) (scFv, V domains shown)
VH: QVQLKQSGPGLVQPSQSLSITCTVSGFSLTSYGVHWVRQSPGKGLEWLGVIWSGGDTDYNAAFISRLSISKDNSKSQLFFKMNSLRATDTAIYYCARNRGDIYYDFTYAMDYWGQGTSVTVSS
VL: DIQMTQSPASLSASVGETVTITCRASGNIQNYLAWYQQTQGKSPQLLVYSAKTLADGVPSRFSGSGSGTQYSLKINSLQPEDFGSYYCQHFWSTPYTFGGGTKLEIK
Take B1: in assay [1], the EC50 came to 35 nM.

B2: murine monoclonal anti-PcrV IgG mAb166 (antibody, V domains shown)
VH: QVQLKQSGPGLVQPSQSLSITCTVSGFSLTSYGVHWVRQSPGKGLEWLGVIWSGGDTDYNAAFISRLSISKDNSKSQLFFKMNSLRATDTAIYYCARNRGDIYYDFTYAMDYWGQGTSVTVSS
VL: DIQMTQSPASLSASVGETVTITCRASGNIQNYLAWYQQTQGKSPQLLVYSAKTLADGVPSRFSGSGSGTQYSLKINSLQPEDFGSYYCQHFWSTPYTFGGGTKLEIK
Regarding B2, the binding result in assay [2], in assay [3], in assay [4], in assay [5], in [6] and in [7] was “binds” throughout. Further, the binding result in [8], in assay [9], in assay [10], in assay [11], in assay [12] and in assay [13] was “binds” each time. In addition, the binding result in assay [14], in [15], in assay [16], in assay [17], in assay [18] and in assay [19] was “binds” each time. The binding result in assay [20], in assay [21] and in [22] was “binds” throughout.

B3: anti-PcrV scFv conjugated with the mouse IgG1 hinge, CH2 and CH3 domains, scFv-m166-mFc (recombinant protein) (Fc fusion)
VH: QVQLKQSGPGLVQPSQSLSITCTVSGFSLTSYGVHWVRQSPGKGLEWLGVIWSGGDTDYNAAFISRLSISKDNSKSQLFFKMNSLRATDTAIYYCARNRGDIYYDFTYAMDYWGQGTSVTVSS
VL: DIQMTQSPASLSASVGETVTITCRASGNIQNYLAWYQQTQGKSPQLLVYSAKTLADGVPSRFSGSGSGTQYSLKINSLQPEDFGSYYCQHFWSTPYTFGGGTKLEIK
Consider B3, for which the EC50 in assay [1] was 57.2 nM.

By EC50 is commonly meant the concentration that produces a half-maximal response.
